Earlier results as cited in PMC9784434.
pKd: −log10 of the molar value.

Biological target: NKG2D (Homo sapiens) (UniProt P26718)
Chain of UniProt P26718 (P26718 whole entry): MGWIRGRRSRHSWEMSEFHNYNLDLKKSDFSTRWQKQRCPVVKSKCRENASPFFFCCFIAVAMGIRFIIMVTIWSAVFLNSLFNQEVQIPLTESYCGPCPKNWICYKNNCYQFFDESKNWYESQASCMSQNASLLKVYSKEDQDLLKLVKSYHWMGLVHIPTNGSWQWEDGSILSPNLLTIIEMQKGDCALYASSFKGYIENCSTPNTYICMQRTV

pKd: 6.10
Substance: MICB (from UniProt Q29980)
